Laboratory results taken from paper PMC5339894, “G196 epitope tag system: a novel monoclonal antibody, G196, recognizes the small, soluble peptide DLVPR with high affinity” (Scientific Reports, 2017).

Key:
[1] = system: Atf1-G196-GFP at the tdh1 promoter; assay: chromatin immunoprecipitation (ChIP) in fission yeast; format: cell-based; conditions: promoter of tdh1 gene (CRE consensus site); 3 μL mAb G196; qPCR
Experimental: Yeast cells were grown in YES medium at 30 °C to mid-log phase. After formaldehyde crosslinking and quenching, 1 × 10^8 cells were harvested to obtain 2 mL of soluble input extract. M-280 anti-mouse sheep antibody-conjugated magnetic beads (112-02, ThermoFisher Scientific) were used for immunoprecipitation: 200 μL of the beads were washed twice with extraction buffer (50 mM HEPES-KOH (pH 7.5), 140 mM NaCl, 1 mM EDTA, 1% Triton X-100, and 0.1% sodium deoxycholate), and then incubated in 1 mL of extraction buffer containing 3 μL of mAb G196 for 1 h at 4 °C. The beads were again washed twice with extraction buffer to remove unbound antibodies and incubated for 1 h with 800 μL of input extract at 4 °C. The relative concentrations of the target sequences were determined using SYBR Premix ExTaq (RR041A, TaKaRa Bio, Shiga, Japan) and a Thermal Cycler Dice Real Time System TP800 (TaKaRa Bio), according to the manufacturer’s instructions. The primers for detecting the −1 kb region were 5′-[…]-3′ and 5′-[…]-3′, and for the tdh1 CRE region the primers were 5′-[…]-3′ and 5′-[…]-3′.

FHG-G196-NAC1 = assay: immunofluorescence of GFP- and G196-tagged nuclear protein in HeLa cells; format: cell-based, human; conditions: FHG-G196-NAC1, Alexa-594 / Alexa-488 secondary
Experimental: Figure 5 Application of the G196 epitope tag system for scientific research. (a) Western blot and immunoprecipitation (IP) analysis of FLAG-HA-Emerald GFP (FHG) tagged with C-terminal G196-tag in HeLa cells using mAb G196. HeLa cells were transfected with FHG/pcDNA3 or FHG-G196/pcDNA3. After incubation for two days, the cells were lysed and subjected to Western blotting with anti-FLAG (M2) or G196 mAbs (left panel). These lysates were immunoprecipitated with anti-FLAG (M2) (lanes 7, 8) or G196 (lanes 9, 10) mAbs and subjected to Western blotting with anti-FLAG polyclonal antibody (right panel). (b) Immunofluorescence of GFP- and G196-tagged nuclear protein in HeLa cells using mAb G196. HeLa cells were transfected with FHG-G196-NAC1/pcDNA3. After incubation for two days, the cells were fixed and incubated with mAb G196 and anti-GFP polyclonal Ab, then stained with Alexa-594 anti-mouse and Alexa-488 anti-rabbit secondary antibodies. (c) Western blot and chromatin immunoprecipitation (ChIP) analysis of Atf1-G196-GFP in fission yeast using mAb G196. A DNA fragment containing the transcription factor atf1 gene fused with the G196 epitope-GFP gene was replaced with the genomic atf1 gene. Protein extracts were separated by SDS-PAGE and detected with mAb G196 and anti-GFP polyclonal antibody (left panel). […] Asterisk indicates non-specific band also detected using the second Ab alone. […]

[2] = system: FLAG-HA-Emerald GFP tagged with C-terminal G196-tag (FHG-G196); assay: immunoprecipitation (IP) from HeLa cell extracts; format: cell-based, human
Text: Short peptides and paired mAbs specific for the sequences of interest are powerful and irreplaceable tools for scientific research. To ascertain the possible versatility of G196-tag as a versatile fusion tag, we generated several human and yeast expression constructs in which the G196-tag was fused to reporter proteins. First, we expressed FLAG- and HA-tagged Emerald GFP (hereafter abbreviated FHG) as a reporter protein, C-terminally fused with a G196-tag (6P12, SDLVPRGSP) in HeLa cells.
Figure 5 Application of the G196 epitope tag system for scientific research. (a) Western blot and immunoprecipitation (IP) analysis of FLAG-HA-Emerald GFP (FHG) tagged with C-terminal G196-tag in HeLa cells using mAb G196. HeLa cells were transfected with FHG/pcDNA3 or FHG-G196/pcDNA3. After incubation for two days, the cells were lysed and subjected to Western blotting with anti-FLAG (M2) or G196 mAbs (left panel). These lysates were immunoprecipitated with anti-FLAG (M2) (lanes 7, 8) or G196 (lanes 9, 10) mAbs and subjected to Western blotting with anti-FLAG polyclonal antibody (right panel). (b) Immunofluorescence of GFP- and G196-tagged nuclear protein in HeLa cells using mAb G196. HeLa cells were transfected with FHG-G196-NAC1/pcDNA3. After incubation for two days, the cells were fixed and incubated with mAb G196 and anti-GFP polyclonal Ab, then stained with Alexa-594 anti-mouse and Alexa-488 anti-rabbit secondary antibodies. (c) Western blot and chromatin immunoprecipitation (ChIP) analysis of Atf1-G196-GFP in fission yeast using mAb G196. A DNA fragment containing the transcription factor atf1 gene fused with the G196 epitope-GFP gene was replaced with the genomic atf1 gene. Protein extracts were separated by SDS-PAGE and detected with mAb G196 and anti-GFP polyclonal antibody (left panel). GFP-Iws1 expressing cells were used as a negative control. Asterisk indicates non-specific band also detected using the second Ab alone. Schematic representation of the tdh1 locus (right upper panel). The promoter of the tdh1 gene harbors a CRE consensus site. […]

B1: mAb G196: mouse mAb (IgG1) raised against GST protein bacterially expressed using the pGEX-2T vector (antibody, V domains shown)
VH: QVKLQESGAELVKPGASVKLSCKASGYTFTNYWMHWVKLRPGQGFEWIGEINPSNGGSNYNEKFKRKATLTVDKSSSTAYMQLSSLTSEDSAVFYCSIWDSYFDYWGQGTTLTVSS
VL: NIVMTQSPKSMSMSVGERVTLTCKASENVVTYVSWYQQKPEQSPKLLIYGASNRYTGVPDRFTGSGSATDFTLTISSVQAEDLADYHCGQGYSYPYTFGGGTKLEIK
ChIP of Atf1 [1]: enriched the Atf1 protein at the promoter of the tdh1 gene
immunofluorescence detection of nuclear reporter protein NAC1 (FHG-G196-NAC1): successfully detected the nuclear reporter protein
immunoprecipitation of reporter lacking G196-tag ([2]; HeLa cell extracts, FHG (lane 9)): did not immunoprecipitate reporter protein lacking the G196-tag
immunoprecipitation of FHG-G196 ([2]; HeLa cell extracts, Western blot with anti-FLAG polyclonal antibody (lane 10)): efficiently immunoprecipited reporter protein
immunoprecipitation of FHG-G196 compared with anti-FLAG ([2]; lane 10 versus lane 8): comparable to that of FLAG immunoprecipitates
